Ki data for one substance are collected here from publication PMC3742519.

This test addresses subtilisin A (Bacillus licheniformis) (Bacillus licheniformis) (UniProt P00780). Nature of the test: enzyme inhibition kinetics (Lineweaver–Burk); substrate (AAPF) added to an equilibrium mixture of subtilisin A and rEs-DWD1; competitive inhibition, inhibitor at 0, 2.5 and 5 μM; 0.1 M Tris-HCl pH 8.0, 37 °C; p-nitroaniline read at 405 nm.
UniProt P00780, sequence (P00780 106-379): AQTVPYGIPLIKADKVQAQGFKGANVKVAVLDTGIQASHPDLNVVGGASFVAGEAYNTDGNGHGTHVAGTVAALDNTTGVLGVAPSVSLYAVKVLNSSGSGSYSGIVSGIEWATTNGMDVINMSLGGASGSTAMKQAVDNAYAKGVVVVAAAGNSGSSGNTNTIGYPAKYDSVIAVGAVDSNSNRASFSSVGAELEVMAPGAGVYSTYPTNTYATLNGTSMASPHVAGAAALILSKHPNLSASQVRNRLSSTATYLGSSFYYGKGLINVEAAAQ

Broadly, the Ki is a dissociation constant, usually derived from enzyme kinetics or from competition with a known ligand. On to “recombinant Es-DWD1 (double WAP domain-containing protein from Eriocheir sinensis) (natural protein)”, for which the Ki amounted to 4.12 nM.
